Data as given in US20180185464A1.

Target: human DC-SIGN (human) (UniProt Q9NNX6)
Assay: cell-based or functional assay

Chain of UniProt Q9NNX6 (Q9NNX6 whole entry): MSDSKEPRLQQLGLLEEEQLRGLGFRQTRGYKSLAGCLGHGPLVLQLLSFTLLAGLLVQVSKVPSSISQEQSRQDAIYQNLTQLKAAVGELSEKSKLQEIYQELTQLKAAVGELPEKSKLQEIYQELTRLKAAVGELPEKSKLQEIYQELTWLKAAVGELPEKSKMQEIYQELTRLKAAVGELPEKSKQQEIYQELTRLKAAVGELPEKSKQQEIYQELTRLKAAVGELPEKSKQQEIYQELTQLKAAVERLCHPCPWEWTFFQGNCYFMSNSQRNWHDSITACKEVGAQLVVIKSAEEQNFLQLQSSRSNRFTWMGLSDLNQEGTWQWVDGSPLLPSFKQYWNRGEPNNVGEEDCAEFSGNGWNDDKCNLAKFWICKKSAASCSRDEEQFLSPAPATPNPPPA

Substance | Internalisation (MFI) DC-SIGN transgenic CD11c+ cells, PBS wash; liposomes engrafted with gp120-6his 27.43 µg/mL, 37 C (unengrafted 74.3) | Internalisation (MFI) DC-SIGN transgenic CD11c+ cells, imidazole wash; liposomes engrafted with gp120-6his 27.43 µg/mL, 37 C (unengrafted 77.2) | Internalisation (MFI) DC-SIGN transgenic CD11c+ cells, PBS wash; liposomes engrafted with FliC-6his 23.04 µg/mL, 37 C (unengrafted 74.3) | Internalisation (MFI) DC-SIGN transgenic CD11c+ cells, imidazole wash; liposomes engrafted with FliC-6his 23.04 µg/mL, 37 C (unengrafted 77.2)
histidine tagged gp120 (gp120-6his) | 118 | 126 | – | –
histidine-tagged FliC (FliC-6his) (from UniProt P06179 2-495) (ligand) | – | – | 70.8 | 79.2
